Data taken from the supplement of paper PMC9170038.

Tests used:
[1] = system: MS2 coat protein; test: apparent KD of MS2 coat protein; designed switch direction (-1 OFF switch, 1 ON switch): 1; higher = weaker reporter binding; details: Eterna round: R98
Experimental: (§1)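 RNA-MaP: designed FMN/MS2 RNA switches (84 nt design region) are transcribed on-chip within common flanks and titrated with SNAP-549-labelled MS2 coat protein (about 1-3000 nM) in 100 mM Tris pH 7.5, 80 mM KCl, 4 mM MgCl2, without or with 200 uM FMN. Median apparent KD per design; activation ratio = KD,OFF / KD,ON.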

[2] = system: MS2 coat protein; test: apparent KD of MS2 coat protein; higher = weaker reporter binding; details: Eterna round: R101
Experimental: as §1

GCCAUCGCAUGAGGAUAUGGCACCGUUUCGGUGCCAGAAGGCAUGUCUCUAGACAUGAGGAUCACCCAUGUAGUUAAGAUGGCA [Pyrimidine booster 2]
apparent KD of MS2 coat protein ([1]; input ligand: FMN 200 uM): 50.4 nM | apparent KD of MS2 coat protein ([1]; input ligand: none): 589 nM

GGACAUCCCACAGGAUAUGCUGGACUUUGUCCAGCAGAAGGGUGACAUGAGGAUCACCCAUGUAAUAGGAUGUCCAUAUUUAAU [Denovo 38]
apparent KD of MS2 coat protein ([1]; input ligand: FMN 200 uM): 79.3 nM | apparent KD of MS2 coat protein ([1]; input ligand: none): 536 nM

GCACUCAAGUUAGGAUAUGGAUCGGAAACCGAUCCAGAAGGAACACAAUAACAUGAGCAUCAGCCGUGUUCCAGAAACGAGUGC [SameSame 15 - Jieux - Same State NG 1]
apparent KD of MS2 coat protein ([1]; input ligand: FMN 200 uM): 126 nM

GCCACAUGAGGAUCACCCAUGUACGGUUCCGUCUCAUUAGUGCAGGAUAUGUUCACCGGAAGUGUGCAGAAGGGUAAAAGUGGG [Onar]
apparent KD of MS2 coat protein ([1]; input ligand: FMN 200 uM): 209 nM | apparent KD of MS2 coat protein ([1]; input ligand: none): 88.2 nM

CCUACCAACACAGGAUAUGCUAUCCUUUGGGUAGCAGAAGGGUGAAACAUGAGGAUCACCCAUGUGGUGGGACCCGGUGACGGG [Mat - Same State NG 1 - Eli mod - D70]
apparent KD of MS2 coat protein ([1]; input ligand: FMN 200 uM): 116 nM | apparent KD of MS2 coat protein ([1]; input ligand: none): 1010 nM

UUUACAUGAGGAUCACCCAUGUUUAGAAAGUUAAUUAUAAGUGAGGAUAUAUAAUUUAUAAAAUAGUAGAAGGCACUGGGUAUU [JR_SSNG3_Sub079]
apparent KD of MS2 coat protein ([1]; input ligand: FMN 200 uM): 27.2 nM | apparent KD of MS2 coat protein ([1]; input ligand: none): 32 nM

GGUCCAAUAUGAGGAUAUAGCACCUUAUUGGUGCUAGAAGGCGUGUCGGUAGACAUGAGGAUCACCCAUGUAUUACAAUGGACC [SameState #28 NG1]
apparent KD of MS2 coat protein ([1]; input ligand: FMN 200 uM): 25.6 nM | apparent KD of MS2 coat protein ([1]; input ligand: none): 88.6 nM

GCAGAAGGUGCGGAGGAUCACCCUGUAAGGAUAUGCAUUAGCAAGGAUAUACAGAGGAUCACCCUGUAGAAGGUGCACUACAAA [pwkr2 ssNG3 DX.5]
apparent KD of MS2 coat protein ([1]; input ligand: FMN 200 uM): 525 nM | apparent KD of MS2 coat protein ([1]; input ligand: none): 1890 nM

CAUAGGUGUACAUGAGGAUCACCCAUGUCCCUGGUCAUUGGACAGGAUAUAUGGGCGGUCGCUUCAUAGAAGGGUUAAAUGGGA [Orenatis]
apparent KD of MS2 coat protein ([1]; input ligand: FMN 200 uM): 224 nM | apparent KD of MS2 coat protein ([1]; input ligand: none): 66.6 nM

GUAGCAUACCGAGGAUAUUCAUAUAAUAAAUAAACAUGAGGAUCACCCAUGUGGCGAAAGCCUAGGGAGAAGGCGGAAUGCUAA [salish99_SSNG2_r2_113]
apparent KD of MS2 coat protein ([1]; input ligand: FMN 200 uM): 23.6 nM | apparent KD of MS2 coat protein ([1]; input ligand: none): 201 nM

UGCACAUGAGGAUCACCCAUGUAUUGUUCGGUUUAUAGUAGUGAGGAUAUGCAAAGUAUAAGGAAGCAGAAGGCACAGGAUUCA [JR_SSNG3_Sub045]
apparent KD of MS2 coat protein ([1]; input ligand: FMN 200 uM): 19.5 nM | apparent KD of MS2 coat protein ([1]; input ligand: none): 26.3 nM

UUGACGUCGGAUACAUGAGGAUCACCCAUGUGCCCGCGGGCACAGGAUAUCGAACAUAGUAUUGACGAGAAGGGUGACAGAGAG [Anxeenerce]
apparent KD of MS2 coat protein ([1]; input ligand: FMN 200 uM): 664 nM | apparent KD of MS2 coat protein ([1]; input ligand: none): 404 nM

UCACUCACGUCAGGAUAUGGAUCGGAAAACGAUCCAGAAGGGACCUGCAAACCUGAGGAUCACCCUGGUUCCAAUAACGAGUGA [SameSame 10 - Jieux - Same State NG 1]
apparent KD of MS2 coat protein ([1]; input ligand: FMN 200 uM): 133 nM | apparent KD of MS2 coat protein ([1]; input ligand: none): 222 nM

CAUGAAGGGUGAGGAUAUGCACAGGAUCACCGUGUAGAAGGCAUCAGGUAGAAGGUGCAGAGGAUCACCCUGUAAGGAUAUAUC [pwkr2 ssNG1 DX.16]
apparent KD of MS2 coat protein ([1]; input ligand: FMN 200 uM): 482 nM | apparent KD of MS2 coat protein ([1]; input ligand: none): 1310 nM

UUUAGUUUGUAGAAGGGUGACAUGAGGAUCACCCAUGUGCGUCGCCUGAAAGACCAGGGUACGCCACAGGAUAUACAAAGUAAA [Tiveedbila] (puzzle (switch architecture): Inverted Same State NG 2)
apparent KD of MS2 coat protein ([2]; input ligand: FMN 200 uM): 76.8 nM | apparent KD of MS2 coat protein ([2]; input ligand: none): 39.6 nM

GCAGCUAAUGCAGGAUAUCAGCACGUGUAGUGCUGAGAAGGGCACAUGAGGAUUCUGACUGUGAUCAAUUAAUAUUAAUGCUGC [salish99#hingeEx3_55-58_005] (puzzle (switch architecture): Exclusion NG 1)
apparent KD of MS2 coat protein ([2]; input ligand: FMN 200 uM): 14.8 nM | apparent KD of MS2 coat protein ([2]; input ligand: none): 29.2 nM
